From the supplement of paper PMC9732359
± gives the uncertainty stated by the source.

Assay: protein stability index of a GFP-peptide fusion (yeast GPS) (PSI 1-4); higher = more stable; sorted into four equal gates, so the index is relative within each strain
In short: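 Tiled yeast protein peptides of 17 residues were each joined downstream of GFP, on plasmids that also express Cherry. The pooled library was maintained in yeast, and mid-log cultures in leucine-free medium were sorted into four equal gates on the GFP/Cherry ratio. Plasmids from every gate were amplified by PCR and sequenced on Illumina, with barcodes linking reads to strains. The protein stability index of a peptide is its gate-number-weighted read frequency summed over the gates.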

Sequence	protein stability index (doa10∆)	protein stability index (pdr5∆)	protein stability index (san1∆)	protein stability index (ubr1∆)
PEYAKVGDFLLQYANNA [SIN4]	2.4 ± 0.085	2.55 ± 0.069	2.5 ± 0.066	1.97 ± 0.044
KSMITSEGEQKSAEGNN [YAR002W/NUP60]	3.2 ± 0.047	3.19 ± 0.045	3.25 ± 0.035	3.17 ± 0.041
SYQKLLKNYVLNELHPT [PRP8]	1.62 ± 0.039	1.57 ± 0.034	1.55 ± 0.057	1.75 ± 0.033
PISEKGLTLSTTNLDID [RPP1]	2.82 ± 0.052	2.92 ± 0.041	3.05 ± 0.034	2.9 ± 0.049
RVVVPQALRVLRLKPGR [RPL16B]	1.24 ± 0.087	1.58 ± 0.06	1.36 ± 0.12	1.77 ± 0.1
FPSSETTSLNPIQSKVF [BRR2]	2.2 ± 0.093	2.52 ± 0.082	1.79 ± 0.14	2.33 ± 0.11
IPVIALTDLDSPSEFVD [RPS0A]	2.68 ± 0.095	2.69 ± 0.091	2.74 ± 0.096	2.42 ± 0.06
VVEACGNIVAELAQDPQ [YCS4]	2.75 ± 0.082	3.38 ± 0.15	3.04 ± 0.1	2.12 ± 0.093
FEEWIKMATDNKINSRN [BRN1]	3.27 ± 0.13	3.17 ± 0.096	3.27 ± 0.11	3.7 ± 0.14
DVLHPNRANVSKDELRE [RPS24A]	3.35 ± 0.086	3.29 ± 0.11	3.19 ± 0.092	3.1 ± 0.086
KVEKRVLGLTILRGEQI [SMB1]	1.69 ± 0.078	2.15 ± 0.12	2 ± 0.17	1.95 ± 0.091
VELLDSNDRVNPLIELT [ITC1]	3.58 ± 0.11	2.5 ± 0.11	3.28 ± 0.075	3.02 ± 0.069
ESAVKYALAAKDRFDID [RPN2]	3.54 ± 0.27	3.09 ± 0.29	2.87 ± 0.22	3.45 ± 0.1
MSIDEEDKDSESFSEVC [YCG1]	2.71 ± 0.15	2.34 ± 0.09	2.48 ± 0.15	2.43 ± 0.067
KSTPEGTLWAHVLKTVD [SNU114]	2.1 ± 0.058	1.93 ± 0.048	2.43 ± 0.072	2.27 ± 0.038
NRKRIVTLRKSLYTNTS [RPL3]	2.66 ± 0.069	2.27 ± 0.065	1.66 ± 0.087	1.73 ± 0.076
LQETLNKSTSSEAEYSK [YIL149C/MLP2]	3.11 ± 0.08	2.9 ± 0.081	3.27 ± 0.062	3.28 ± 0.068
LALINYGRQELADDLIT [RPN2]	–	1.82 ± 0.26	1.57 ± 0.28	1.49 ± 0.14
NSIRAREVENSVSLLNS [SMC1]	2.55 ± 0.064	2.78 ± 0.06	3.09 ± 0.071	3.08 ± 0.069
LQYTALTGSPNNPLVQK [ARP7]	2.66 ± 0.07	2.7 ± 0.064	2.34 ± 0.078	2.95 ± 0.045
VMNKNQETAISVAKLFK [RPT6]	2.24 ± 0.19	1.72 ± 0.19	–	–
LDDITDSNTTEILTSVD [SIR4]	3.26 ± 0.066	3.18 ± 0.072	2.94 ± 0.069	3.08 ± 0.065
HPSIYTQVFNILLQHKE [POP1]	2.25 ± 0.083	2.6 ± 0.074	2.41 ± 0.08	2.39 ± 0.044
AEEKREAVIDEKLEVIA [ITC1]	3.04 ± 0.15	2.62 ± 0.16	3.03 ± 0.14	3.13 ± 0.082
KEPVALIETVRQMKDVN [RPN2]	3.36 ± 0.059	3.41 ± 0.067	3.15 ± 0.051	3.31 ± 0.041
EINNLIQLPASLAATYS [ARP9]	1.59 ± 0.063	1.87 ± 0.045	1.96 ± 0.07	1.65 ± 0.047
GINKKKLLAISKFNNAD [RPC31]	–	1.93 ± 0.18	2.97 ± 0.23	–

Sequence	protein stability index (doa10∆)	protein stability index (pdr5∆)	protein stability index (san1∆)	protein stability index (ubr1∆)
YPMMHQVRNQVFMLDTK [RGR1]	2.25 ± 0.08	2.35 ± 0.08	2.3 ± 0.081	2.75 ± 0.068
KNSSVSSLMNGLGYVFE [SRB5]	3.06 ± 0.14	1.72 ± 0.073	2.4 ± 0.1	2.51 ± 0.056
NQILQTEIENYLLENNQ [YDL116W/NUP84]	1.88 ± 0.052	2.24 ± 0.038	2.19 ± 0.066	2.13 ± 0.043
MIFETIVDGKLKTEKIF [FAS1]	1.8 ± 0.07	2.21 ± 0.12	1.89 ± 0.1	2.17 ± 0.08
FVRGDSKIFRFQNSKSA [RPL24A]	2.31 ± 0.053	2.63 ± 0.057	2.31 ± 0.059	2.43 ± 0.051
RRRTYRAHGRINKYESS [RPL17A]	1.87 ± 0.2	2.37 ± 0.094	1.9 ± 0.13	2.05 ± 0.065
MNKIFTIFKSGEIDFIK [YML103C/NUP188]	2.51 ± 0.091	2.62 ± 0.054	2.41 ± 0.075	2.59 ± 0.06
TFDLTPEDAQLLLAANT [RPS0A]	2.28 ± 0.054	1.88 ± 0.049	2.31 ± 0.088	2.45 ± 0.053
EGKKVMAPYLPGSRASS [RPN2]	2.47 ± 0.065	2.69 ± 0.074	2.4 ± 0.072	2.54 ± 0.052
KLANFFSKKGNEPLSEI [YAR002W/NUP60]	2.82 ± 0.095	3.17 ± 0.076	3.14 ± 0.067	3.13 ± 0.099
LDDLVVLKKKNIQKKQP [RRP6]	1.44 ± 0.079	1.38 ± 0.061	2.08 ± 0.12	2.34 ± 0.14
YEGMKLGNHAITIDSVV [YMR129W/POM152]	2.27 ± 0.094	1.36 ± 0.12	1.64 ± 0.16	2 ± 0.15
DLENSPLKTELEANGRS [SSN2]	3.6 ± 0.094	3.59 ± 0.093	3.17 ± 0.096	3.51 ± 0.089
KAEMPPEHLRKIINTHS [PRP8]	1.94 ± 0.089	1.74 ± 0.058	1.82 ± 0.12	1.89 ± 0.061
TLKKNNVAVDIINFGEI [RPN10]	2.97 ± 0.081	3.01 ± 0.092	3.02 ± 0.1	2.74 ± 0.063
LKISGEEESLHVFQYAN [RPC37]	1.85 ± 0.13	2.21 ± 0.13	2.27 ± 0.14	2.41 ± 0.071
EIYTVEDRPPEYWAQRK [ISW2]	3.44 ± 0.23	3.14 ± 0.14	–	3.31 ± 0.13
ITMPATNGKPDMAILER [ARP7]	3.17 ± 0.059	3.08 ± 0.059	3.06 ± 0.041	3.18 ± 0.042
TEKEEAVAKAAEKKVVR [RPL17A]	3.44 ± 0.087	3.35 ± 0.082	3.24 ± 0.053	3.24 ± 0.062
HTVFTSVNKNKRQAYAV [RPL4A]	–	1.17 ± 0.2	–	–
SFHVQKKTCSSCGYPSA [RPL37B]	1.86 ± 0.08	2.18 ± 0.076	1.86 ± 0.12	2.19 ± 0.059
DLSANQRETMKERKLRE [SMC1]	3.3 ± 0.13	3.06 ± 0.096	2.96 ± 0.091	3.42 ± 0.063
IVLSKAASALDEKEKQL [SIR4]	3.35 ± 0.1	3.03 ± 0.11	3.04 ± 0.17	3.57 ± 0.21
VAARAEILRIHSRKMNL [RPT6]	2.59 ± 0.056	2.53 ± 0.054	2.5 ± 0.081	2.64 ± 0.068
ISIKDNKLVMKSKFNKS [GAL11]	2.51 ± 0.057	2.59 ± 0.064	3.2 ± 0.047	2.08 ± 0.068
DKSTTQLRKEIQLLDEN [MED11]	1.56 ± 0.093	1.54 ± 0.086	1.71 ± 0.17	1.55 ± 0.068
